Results as given in paper PMC10718521, “Complexity of αvβ6-integrin targeting RGD peptide trimers: emergence of non-specific binding by synergistic interaction” (RSC Medicinal Chemistry, 2023).

Tests used:
[1] = type: physicochemical; settings: pH 7.4
Protocol: The trimers were labeled with ^68Ga for biodistribution and small-animal PET experiments employing a fully automated method.[39] Non-radioactive reference compounds were obtained by complexation of equimolar amounts of ^natGa^3+ in form of the aq. chloride solution.[39] The polarity of the ^68Ga or ^natGa^3+ containing conjugates, respectively, was assessed by two established proxies, namely the n-octanol/water distribution coefficient at pH 7.4, log D7.4, and the retention time tR on a reverse-phase HPLC column with a suitable liquid-phase gradient (10–50% acetonitrile in water with 0.1% trifluoroacetic acid) (see Fig. 2a). […] A measurable decrease of the log D7.4 was only observed for ≥3 Tyr. […]
(§1) Unless otherwise noted, the materials and the instrumentation used (analytical and preparative HPLC, ESI-MS, gamma counter, centrifuge), and the experimental procedures (^68Ga radiolabeling and radio-TLC for quality control, determination of log D7.4, cultivation of H2009 human lung adenocarcinoma cells, generation of tumor xenografts in CB17 SCID mice, small-animal PET, and biodistribution) were described before.[19] All animal experiments have been carried out according to applicable law and institutional guidelines of Technical University of Munich, and were approved by the responsible local authority (Regierung von Oberbayern). The H2009 cells were regularly authenticated and tested for mycoplasma contamination. The affinities of the pentynoic amide functionalized peptides were determined employing a well-established ELISA protocol on immobilized integrins.[36] TRAP-triazide,[38]FF (previously termed AvB6),[32] and YY (also referred to as Tyr2-alkyne)[33] were synthesized as described previously. RP-HPLC for assessment of compound polarity was done on a 150 × 4.6 mm ReproSil-Pur 120 C18-AQ 5 μm column, with a flow of 0.75 mL min^−1 and a gradient of 10–50% MeCN in water, both containing 0.1% trifluoroacetic acid, within 15 min. The required ^natGa-complexes of the peptide trimers were synthesized by reaction with equimolar amounts of aq. GaCl3 as described.[19]

in vivo = assay: in vivo; parameters: species or system mice; settings: CB17 SCID, mouse, total radioactivity
Excerpt: The biodistribution of all ^68Ga-labeled peptide trimers was investigated in severe combined immunodeficiency (SCID) mice bearing subcutaneous xenografts of the αvβ6-integrin expressing human lung adenocarcinoma cell line H2009 on their right shoulders.
as §1

[2] = tumor/organ ratio Heart (myocard)
[3] = tumor/organ ratio Large intestine (empty)
[4] = tumor/organ ratio Small intestine (empty)
[5] = tumor/organ ratio Stomach (empty)

Row | Compound | logD [1] | tissue uptake at 1.5 h (in vivo; Adrenals uptake) [%ID/g] | tissue uptake at 1.5 h (in vivo; Blood uptake) [%ID/g] | tissue uptake at 1.5 h (in vivo; Heart (myocard) uptake) [%ID/g] | tissue uptake at 1.5 h (in vivo; Kidneys uptake) [%ID/g] | tissue uptake at 1.5 h (in vivo; Large intestine (empty) uptake) [%ID/g] | tissue uptake at 1.5 h (in vivo; Liver uptake) [%ID/g] | tissue uptake at 1.5 h (in vivo; Lung uptake) [%ID/g] | tissue uptake at 1.5 h (in vivo; Muscle uptake) [%ID/g] | tissue uptake at 1.5 h (in vivo; Pancreas uptake) [%ID/g] | tissue uptake at 1.5 h (in vivo; Small intestine (empty) uptake) [%ID/g] | tissue uptake at 1.5 h (in vivo; Spleen uptake) [%ID/g] | tissue uptake at 1.5 h (in vivo; Stomach (empty) uptake) [%ID/g] | tissue uptake at 1.5 h (in vivo; Tumor H2009 uptake) [%ID/g] | tissue to tissue ratio at 1.5 h (in vivo; tumor/organ ratio Adrenals) | tissue to tissue ratio at 1.5 h (in vivo; tumor/organ ratio Blood) | tissue to tissue ratio at 1.5 h (in vivo; [2]) | tissue to tissue ratio at 1.5 h (in vivo; tumor/organ ratio Kidneys) | tissue to tissue ratio at 1.5 h (in vivo; [3]) | tissue to tissue ratio at 1.5 h (in vivo; tumor/organ ratio Liver) | other results
1 | CC(C)C[C@@H]1NC(=O)[C@H](CC(=O)O)NC(=O)CNC(=O)[C@H](CCCNC(=N)N)NC(=O)[C@H](Cc2ccccc2)NC(=O)[C@H](CCCCNC(=O)CCc2cn(CCCNC(=O)CCP(=O)(O)CN3CCN(CP(=O)(O)CCC(=O)NCCCn4cc(CCC(=O)NCCCC[C@H]5C(=O)N[C@@H](Cc6ccccc6)C(=O)N[C@@H](CCCNC(=N)N)C(=O)NCC(=O)N[C@@H](CC(=O)O)C(=O)N[C@@H](CC(C)C)C(=O)N[C@@H](C)C(=O)N[C@@H](Cc6ccccc6)C(=O)N6CCC[C@@H]6C(=O)N5C)nn4)CCN(CP(=O)(O)CCC(=O)NCCCn4cc(CCC(=O)NCCCC[C@H]5C(=O)N[C@@H](Cc6ccc(O)cc6)C(=O)N[C@@H](CCCNC(=N)N)C(=O)NCC(=O)N[C@@H](CC(=O)O)C(=O)N[C@@H](CC(C)C)C(=O)N[C@@H](C)C(=O)N[C@@H](Cc6ccc(O)cc6)C(=O)N6CCC[C@@H]6C(=O)N5C)nn4)CC3)nn2)N(C)C(=O)[C@H]2CCCN2C(=O)[C@H](Cc2ccccc2)NC(=O)[C@H](C)NC1=O (68Ga complex, metal not drawn) [Y2] | -1.5 ± 0.2 | 1.5 ± 1.28 | 2.26 ± 0.26 | 1.08 ± 0.13 | 92 ± 12.2 | 3.81 ± 0.53 | 3.37 ± 0.68 | 4.8 ± 0.5 | 0.72 ± 0.15 | 0.65 ± 0.12 | 2.55 ± 0.27 | 2.51 ± 0.33 | 7.17 ± 0.58 | 7.95 ± 1.02 | 8.8 ± 6.2 | 3.5 ± 0.5 | 7.4 ± 0.6 | 0.1 | 2.1 ± 0.2 | 2.4 ± 0.4 | log D7.4 [1]: −1.4 to −1.5; tissue to tissue ratio at 1.5 h (in vivo; tumor/organ ratio Lung): 1.7 ± 0.2; tissue to tissue ratio at 1.5 h (in vivo; tumor/organ ratio Muscle): 11.4 ± 2.4; tissue to tissue ratio at 1.5 h (in vivo; tumor/organ ratio Pancreas): 12.7 ± 2.9; tissue to tissue ratio at 1.5 h (in vivo; [4]): 3.1 ± 0.5; tissue to tissue ratio at 1.5 h (in vivo; tumor/organ ratio Spleen): 3.2 ± 0.7; tissue to tissue ratio at 1.5 h (in vivo; [5]): 1.1 ± 0.1
2 | CC(C)C[C@@H]1NC(=O)[C@H](CC(=O)O)NC(=O)CNC(=O)[C@H](CCCNC(=N)N)NC(=O)[C@H](Cc2ccc(O)cc2)NC(=O)[C@H](CCCCNC(=O)CCc2cn(CCCNC(=O)CCP(=O)(O)CN3CCN(CP(=O)(O)CCC(=O)NCCCn4cc(CCC(=O)NCCCC[C@H]5C(=O)N[C@@H](Cc6ccc(O)cc6)C(=O)N[C@@H](CCCNC(=N)N)C(=O)NCC(=O)N[C@@H](CC(=O)O)C(=O)N[C@@H](CC(C)C)C(=O)N[C@@H](C)C(=O)N[C@@H](Cc6ccccc6)C(=O)N6CCC[C@@H]6C(=O)N5C)nn4)CCN(CP(=O)(O)CCC(=O)NCCCn4cc(CCC(=O)NCCCC[C@H]5C(=O)N[C@@H](Cc6ccc(O)cc6)C(=O)N[C@@H](CCCNC(=N)N)C(=O)NCC(=O)N[C@@H](CC(=O)O)C(=O)N[C@@H](CC(C)C)C(=O)N[C@@H](C)C(=O)N[C@@H](Cc6ccccc6)C(=O)N6CCC[C@@H]6C(=O)N5C)nn4)CC3)nn2)N(C)C(=O)[C@H]2CCCN2C(=O)[C@H](Cc2ccccc2)NC(=O)[C@H](C)NC1=O (68Ga complex, metal not drawn) [Y3Y] | -1.7 ± 0.1 | 0.81 ± 0.41 | 1.13 ± 0.25 | 0.66 ± 0.16 | 72.6 ± 5.25 | 3.94 ± 1.85 | 1.23 ± 0.19 | 4.96 ± 0.48 | 0.51 ± 0.11 | 0.33 ± 0.07 | 1.69 ± 0.2 | 3.82 ± 0.82 | 4.03 ± 1.36 | 5.92 ± 2.07 | 6.7 ± 3 | 4.9 ± 0.5 | 8.5 ± 1.1 | 0.1 | 1.8 ± 1.1 | 4.4 ± 0.7 | tissue to tissue ratio at 1.5 h (in vivo; tumor/organ ratio Lung): 1 ± 0.2; tissue to tissue ratio at 1.5 h (in vivo; tumor/organ ratio Muscle): 10.7 ± 1.1; tissue to tissue ratio at 1.5 h (in vivo; tumor/organ ratio Pancreas): 17 ± 1.4; tissue to tissue ratio at 1.5 h (in vivo; [4]): 3.2 ± 0.6; tissue to tissue ratio at 1.5 h (in vivo; tumor/organ ratio Spleen): 1.4 ± 0.2; tissue to tissue ratio at 1.5 h (in vivo; [5]): 1.5 ± 0.7
3 | CC(C)C[C@@H]1NC(=O)[C@H](CC(=O)O)NC(=O)CNC(=O)[C@H](CCCNC(=N)N)NC(=O)[C@H](Cc2ccccc2)NC(=O)[C@H](CCCCNC(=O)CCc2cn(CCCNC(=O)CCP(=O)(O)CN3CCN(CP(=O)(O)CCC(=O)NCCCn4cc(CCC(=O)NCCCC[C@H]5C(=O)N[C@@H](Cc6ccccc6)C(=O)N[C@@H](CCCNC(=N)N)C(=O)NCC(=O)N[C@@H](CC(=O)O)C(=O)N[C@@H](CC(C)C)C(=O)N[C@@H](C)C(=O)N[C@@H](Cc6ccccc6)C(=O)N6CCC[C@@H]6C(=O)N5C)nn4)CCN(CP(=O)(O)CCC(=O)NCCCn4cc(CCC(=O)NCCCC[C@H]5C(=O)N[C@@H](Cc6ccccc6)C(=O)N[C@@H](CCCNC(=N)N)C(=O)NCC(=O)N[C@@H](CC(=O)O)C(=O)N[C@@H](CC(C)C)C(=O)N[C@@H](C)C(=O)N[C@@H](Cc6ccc(O)cc6)C(=O)N6CCC[C@@H]6C(=O)N5C)nn4)CC3)nn2)N(C)C(=O)[C@H]2CCCN2C(=O)[C@H](Cc2ccccc2)NC(=O)[C@H](C)NC1=O (68Ga complex, metal not drawn) [Y1F] | -1.4 ± 0.1 | 1.26 ± 0.24 | 2.57 ± 0.33 | 1.2 ± 0.16 | 111 ± 15.3 | 4.43 ± 1.28 | 3.86 ± 0.17 | 8.81 ± 0.64 | 0.97 ± 0.48 | 0.61 ± 0.1 | 2.86 ± 0.57 | 3.48 ± 0.49 | 7.37 ± 1.23 | 8.08 ± 1.35 | 6.5 ± 0.8 | 3.2 ± 0.6 | 6.8 ± 1.2 | 0.1 | 2 ± 0.9 | 2.1 ± 0.4 | log D7.4 [1]: −1.4 to −1.5; tissue to tissue ratio at 1.5 h (in vivo; tumor/organ ratio Lung): 0.9 ± 0.1; tissue to tissue ratio at 1.5 h (in vivo; tumor/organ ratio Muscle): 9.5 ± 3.2; tissue to tissue ratio at 1.5 h (in vivo; tumor/organ ratio Pancreas): 13.3 ± 2.3; tissue to tissue ratio at 1.5 h (in vivo; [4]): 2.9 ± 0.9; tissue to tissue ratio at 1.5 h (in vivo; tumor/organ ratio Spleen): 2.4 ± 0.2; tissue to tissue ratio at 1.5 h (in vivo; [5]): 1.1 ± 0.3
4 | CC(C)C[C@@H]1NC(=O)[C@H](CC(=O)O)NC(=O)CNC(=O)[C@H](CCCNC(=N)N)NC(=O)[C@H](Cc2ccc(O)cc2)NC(=O)[C@H](CCCCNC(=O)CCc2cn(CCCNC(=O)CCP(=O)(O)CN3CCN(CP(=O)(O)CCC(=O)NCCCn4cc(CCC(=O)NCCCC[C@H]5C(=O)N[C@@H](Cc6ccc(O)cc6)C(=O)N[C@@H](CCCNC(=N)N)C(=O)NCC(=O)N[C@@H](CC(=O)O)C(=O)N[C@@H](CC(C)C)C(=O)N[C@@H](C)C(=O)N[C@@H](Cc6ccc(O)cc6)C(=O)N6CCC[C@@H]6C(=O)N5C)nn4)CCN(CP(=O)(O)CCC(=O)NCCCn4cc(CCC(=O)NCCCC[C@H]5C(=O)N[C@@H](Cc6ccc(O)cc6)C(=O)N[C@@H](CCCNC(=N)N)C(=O)NCC(=O)N[C@@H](CC(=O)O)C(=O)N[C@@H](CC(C)C)C(=O)N[C@@H](C)C(=O)N[C@@H](Cc6ccc(O)cc6)C(=O)N6CCC[C@@H]6C(=O)N5C)nn4)CC3)nn2)N(C)C(=O)[C@H]2CCCN2C(=O)[C@H](Cc2ccc(O)cc2)NC(=O)[C@H](C)NC1=O (68Ga complex, metal not drawn) [Y6] | -2.1 ± 0.1 | 0.5 ± 0.11 | 1.03 ± 0.21 | 0.59 ± 0.11 | 95.7 ± 12.6 | 4.36 ± 0.77 | 0.73 ± 0.11 | 4.47 ± 1.12 | 0.68 ± 0.18 | 0.27 ± 0.04 | 2.72 ± 1.15 | 3.91 ± 0.91 | 6.24 ± 1.24 | 7.52 ± 1.21 | – | – | – | – | – | – | –
